Source: patent US20210196796A1 (SYNTHEKINE, published 2021)

Legend:
[1] = biological target: T1, orthogonal hCD122 receptor (hoRb), hCD122 with H133D and Y134F (human, UniProt P14784 27-550); assay: cell-based or functional assay
T1 sequence: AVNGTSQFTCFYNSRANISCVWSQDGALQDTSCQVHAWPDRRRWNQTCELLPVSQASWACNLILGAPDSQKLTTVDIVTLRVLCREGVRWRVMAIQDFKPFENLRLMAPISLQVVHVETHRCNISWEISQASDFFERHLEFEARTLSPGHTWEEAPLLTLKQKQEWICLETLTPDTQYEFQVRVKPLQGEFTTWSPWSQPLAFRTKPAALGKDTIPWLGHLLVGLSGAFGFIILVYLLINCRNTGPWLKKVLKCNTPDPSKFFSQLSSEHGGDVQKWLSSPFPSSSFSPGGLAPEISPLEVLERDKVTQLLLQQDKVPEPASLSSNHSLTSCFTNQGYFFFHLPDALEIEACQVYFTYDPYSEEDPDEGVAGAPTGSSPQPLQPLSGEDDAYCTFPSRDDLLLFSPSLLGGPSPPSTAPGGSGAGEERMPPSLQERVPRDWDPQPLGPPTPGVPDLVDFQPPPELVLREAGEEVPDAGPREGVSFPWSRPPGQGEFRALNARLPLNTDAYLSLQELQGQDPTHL

[2] = biological target: T1, orthogonal hCD122 receptor (hoRb), …; assay: cell-based or functional assay; remark: listed apart in the source
Wherever Relative Proliferation Fold Change 3F8 1:10 is given: reference of the scale not given here.
Wherever Relative Proliferation Fold Change 3F8 1:2 is given: reference of the scale not given here.
Wherever Relative Proliferation Fold Change 3F8 1:50 is given: reference of the scale not given here.
Wherever Relative Proliferation Fold Change NKL 1:10 is given: reference of the scale not given here.
Wherever Relative Proliferation Fold Change NKL 1:2 is given: reference of the scale not given here.
Wherever Relative Proliferation Fold Change NKL 1:50 is given: reference of the scale not given here.

Row | Binder | NKL Ortho Proliferation Signal 1:2 [1] | NKL Ortho Proliferation Signal 1:10 [1] | NKL Ortho Proliferation Signal 1:50 [1] | Relative Proliferation Fold Change NKL 1:2 [1] [fold] | Relative Proliferation Fold Change NKL 1:10 [1] [fold] | Relative Proliferation Fold Change NKL 1:50 [1] [fold] | 3F8 Ortho Proliferation Signal 1:2 [2] [cts/min] | 3F8 Ortho Proliferation Signal 1:10 [2] [cts/min] | 3F8 Ortho Proliferation Signal 1:50 [2] [cts/min] | Relative Proliferation Fold Change 3F8 1:2 [2] [fold] | Relative Proliferation Fold Change 3F8 1:10 [2] [fold] | Relative Proliferation Fold Change 3F8 1:50 [2] [fold]
1 | ΔT51, SQVLKA (ligand) APTSSSTKKTQLQLSQLLVLLKAILNGINNYKNPKLTRMLTFKFYMPKKAELKHLQCLEEELKPLEEVLNLAQSKNFHLRPRDLISNINVIVLELKGSETTFMCEYADETATIVEFLNRWITFCQSIISTLT | 12100 | 10100 | 7780 | 1 | 0.71 | 0.58 | 9940 | 7070 | 1060 | 59.1 | 8.73 | 2.17
2 | Q13W SQVLKA (ligand) APTSSSTKKTQLWLSQLLVLLKAILNGINNYKNPKLTRMLTFKFYMPKKATELKHLQCLEEELKPLEEVLNLAQSKNFHLRPRDLISNINVIVLELKGSETTFMCEYADETATIVEFLNRWITFCQSIISTLT | 13700 | 12900 | 8730 | 1.24 | 0.84 | 0.63 | 27000 | 16900 | 6420 | 148 | 22.2 | 10.9
3 | H55Y, SQVLKA (ligand) APTSSSTKKTQLQLSQLLVLLKAILNGINNYKNPKLTRMLTFKFYMPKKATELKYLQCLEEELKPLEEVLNLAQSKNFHLRPRDLISNINVIVLELKGSETTFMCEYADETATIVEFLNRWITFCQSIISTLT | 47100 | 37100 | 17800 | 3.72 | 2.34 | 1.22 | 24600 | 29500 | 16500 | 63 | 23.5 | 16.7
4 | L80V, SQVLKA (ligand) APTSSSTKKTQLQLSQLLVLLKAILNGINNYKNPKLTRMLTFKFYMPKKATELKHLQCLEEELKPLEEVLNLAQSKNFHVRPRDLISNINVIVLELKGSETTFMCEYADETATIVEFLNRWITFCQSIISTLT | 62500 | 51600 | 24300 | 4.26 | 3.13 | 1.58 | 34900 | 34800 | 21200 | 30.6 | 38 | 32.7
5 | L80F, SQVLKA (ligand) APTSSSTKKTQLQLSQLLVLLKAILNGINNYKNPKLTRMLTFKFYMPKKATELKHLQCLEEELKPLEEVLNLAQSKNFHFRPRDLISNINVIVLELKGSETTFMCEYADETATIVEFLNRWITFCQSIISTLT | 61200 | 67800 | 33200 | 4.24 | 4.14 | 2.27 | 37200 | 26800 | 25800 | 1.01 | 2.8 | 16.8
6 | Q74S, SQVLKA (ligand) APTSSSTKKTQLQLSQLLVLLKAILNGINNYKNPKLTRMLTFKFYMPKKATELKHLQCLEEELKPLEEVLNLASSKNFHLRPRDLISNINVIVLELKGSETTFMCEYADETATIVEFLNRWITFCQSIISTLT | 54600 | 65700 | 35000 | 4.07 | 4.17 | 2.44 | 36400 | 32500 | 27100 | 18.7 | 56.7 | 33.8
7 | T51I, SQVLKA (ligand) APTSSSTKKTQLQLSQLLVLLKAILNGINNYKNPKLTRMLTFKFYMPKKAIELKHLQCLEEELKPLEEVLNLAQSKNFHLRPRDLISNINVIVLELKGSETTFMCEYADETATIVEFLNRWITFCQSIISTLT | 50800 | 37900 | 18500 | 3.57 | 2.64 | 1.4 | 31900 | 20200 | 11600 | 111 | 43.1 | 15.6
8 | Q74H, SQVLKA (ligand) APTSSSTKKTQLQLSQLLVLLKAILNGINNYKNPKLTRMLTFKFYMPKKATELKHLQCLEEELKPLEEVLNLAHSKNFHLRPRDLISNINVIVLELKGSETTFMCEYADETATIVEFLNRWITFCQSIISTLT | 58300 | 50300 | 23000 | 3.89 | 3.18 | 1.6 | 35100 | 28700 | 21200 | 64.7 | 42.9 | 53
9 | Q74N, SQVLKA (ligand) APTSSSTKKTQLQLSQLLVLLKAILNGINNYKNPKLTRMLTFKFYMPKKATELKHLQCLEEELKPLEEVLNLANSKNFHLRPRDLISNINVIVLELKGSETTFMCEYADETATIVEFLNRWITFCQSIISTLT | 55100 | 47400 | 22600 | 4.23 | 3.18 | 1.67 | 34200 | 36400 | 21900 | 116 | 96.8 | 17.5
